Biological target: T1, SUMO-MDM2 (full length, residues 1-491) (human, UniProt Q00987 1-491)
T1 construct: MDM2, human, full length, residues 1-491; cloned into a SUMO vector (modified pET-28a); eluted without tag cleavage; also called sumo-tagged MDM2; SUMO-MDM2 fusion protein; source: E. coli BL21 (DE3), purified (HisTrap, Superdex 200)
Test: pull-down; GST-tagged MAGE-C2 proteins on glutathione Sepharose beads, SUMO-MDM2 added; both expressed in bacterium; 20 mM Tris pH 8, 150 mM NaCl, 0.2 mM TCEP, 0.02% Triton-100, 5% milk powder, 4°C; anti-MDM2 Western blot (Figure 2A)
Settings: both partners purified

T1 sequence (Q00987 whole entry, the tested form may be a part): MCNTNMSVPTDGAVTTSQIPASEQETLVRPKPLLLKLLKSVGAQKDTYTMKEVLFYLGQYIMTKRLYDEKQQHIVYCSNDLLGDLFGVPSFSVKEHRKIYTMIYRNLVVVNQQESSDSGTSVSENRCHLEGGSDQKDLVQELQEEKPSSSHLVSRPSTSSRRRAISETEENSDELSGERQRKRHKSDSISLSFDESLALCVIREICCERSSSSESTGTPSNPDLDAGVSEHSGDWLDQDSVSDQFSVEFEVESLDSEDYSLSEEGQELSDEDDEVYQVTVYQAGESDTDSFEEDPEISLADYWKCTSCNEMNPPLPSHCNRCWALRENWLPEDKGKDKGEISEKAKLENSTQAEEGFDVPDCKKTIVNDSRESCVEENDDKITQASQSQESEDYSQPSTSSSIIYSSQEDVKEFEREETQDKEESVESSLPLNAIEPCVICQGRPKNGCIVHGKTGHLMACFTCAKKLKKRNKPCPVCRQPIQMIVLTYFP

binding result	Binder
binds	GST-tagged MAGE-C2 full length (residues 1-373) (natural protein, human, UniProt Q9UBF1 1-373, looked up, MAGE-C2, human, full length, residues 1-373; synthetic gene in pGEX-6p-1 with a 3C protease site after GST; In the ubiquitination assays the GST tag had been cut off with 3C protease; in the pull-down GST was kept; also called MAGE-C2 FL; GST-MAGE-C2; source: E. coli BL21 (DE3), purified (glutathione Sepharose); not shown: GST, N-terminal, kept) MPPVPGVPFRNVDNDSPTSVELEDWVDAQHPTDEEEEEASSASSTLYLVFSPSSFSTSSSLILGGPEEEEVPSGVIPNLTESIPSSPPQGPPQGPSQSPLSSCCSSFSWSSFSEESSSQKGEDTGTCQGLPDSESSFTYTLDEKVAELVEFLLLKYEAEEPVTEAEMLMIVIKYKDYFPVILKRAREFMELLFGLALIEVGPDHFCVFANTVGLTDEGSDDEGMPENSLLIIILSVIFIKGNCASEEVIWEVLNAVGVYAGREHFVYGEPRELLTKVWVQGHYLEYREVPHSSPPYYEFLWGPRAHSESIKKKVLEFLAKLNNTVPSSFPSWYKDALKDVEERVQATIDTADDATVMASESLSVMSSNVSFSE
binds	GST-tagged MAGE-C2 MHD domain (residues 140-350) (domain or fragment, human, UniProt Q9UBF1 140-350, looked up, MAGE-C2, human, MAGE homology domain (MHD), residues 140-350; synthetic gene in pGEX-6p-1; In the ubiquitination assays other forms were used (GST cut off in vitro; Myc-tagged in HEK293T cells); also called MHD^WT; GST-MAGE-C2; source: E. coli BL21 (DE3), purified (glutathione Sepharose); not shown: GST, N-terminal, kept) TLDEKVAELVEFLLLKYEAEEPVTEAEMLMIVIKYKDYFPVILKRAREFMELLFGLALIEVGPDHFCVFANTVGLTDEGSDDEGMPENSLLIIILSVIFIKGNCASEEVIWEVLNAVGVYAGREHFVYGEPRELLTKVWVQGHYLEYREVPHSSPPYYEFLWGPRAHSESIKKKVLEFLAKLNNTVPSSFPSWYKDALKDVEERVQATIDT

— paper PMC9344466, “The Dual Roles of MAGE-C2 in p53 Ubiquitination and Cell Proliferation Through E3 Ligases MDM2 and TRIM28” (Frontiers in Cell and Developmental Biology, 2022)
